Positions count from the first letter of the chain named. Numbers in names are those of the source.

The target in test [1] is T1, human CD40 with C-terminal Flag tag on HEK293 cells (human, UniProt P25942 21-277).
T1 construct: whole, on cells; also called HEK293 cells highly expressing CD40; cell strain highly expressing human CD40
Briefly: FACS, HEK293 cells transiently expressing human CD40. The procedure:
The ability of the humanized antibodies to bind to cells highly expressing the human antigen protein CD40 was measured by FACS. HEK293 cells were transiently transfected with CD40 plasmids (CD40 cDNA ORF Clone, Human, C-[…] (Flag®) Tag; Sino Biological; HG10774-CF), yielding HEK293 cells highly expressing CD40. The resulting cells were resuspended in the flow cytometry staining buffer ([…]), and the test antibodies that had been serially diluted to different concentrations were added. After 1 h of incubation on ice, the cells were washed with PBS and centrifuged at 400 g for 5 min. A goat anti-human Fc antibody labeled with the fluorescent group Alexa Fluor 647 was added as a secondary antibody, and the cells were stained in an ice bath for 1 h. After two washes with PBS, the fluorescent signals on the cell surface were detected by FACS. The humanized antibodies of the present disclosure all have relatively high affinities for the cell strain highly expressing CD40.
A general note: A flow cytometer gives signals particle by particle.

Test [2] addresses T2, human CD40 on cells (Raji cells; HEK-Blue CD40L cells; human dendritic cells) (human, UniProt P25942 21-277). The test can be described thus: cell-based or functional assay.
Test [3] concerns the target T3, cynomolgus monkey CD40 on HEK293 cells (cynomolgus monkey, UniProt G7PG38 21-278).
T3 construct: whole, on cells
Briefly: FACS, HEK293 cells transiently expressing cynomolgus monkey CD40. The procedure:
(§1) The binding of the bispecific antibodies to cell surface CD40 was measured by FACS, including HEK-Blue™CD40L cells highly expressing human CD40 (Invivogen, Cat #hkb-cd40), and HEK293 cells that were transiently transfected with cynomolgus monkey CD40 plasmids (Sino Biological, cat #CG90970-UT) and thus made to highly express cynomolgus monkey CD40. […] See FIGS. 9A, 9B and 11 and Table 21 for details.

Test [4] deals with T2, human CD40 on cells (Raji cells; …). The test can be described thus: FACS, HEK-Blue CD40L cells expressing human CD40. As for the experimental part: as §1
The target of another test is T4, mouse FAP on CHOK1 cells (mouse, UniProt P97321 1-761).
T4 construct: whole, on cells; also called cell surface mouse FAP
T4 sequence (P97321 whole entry): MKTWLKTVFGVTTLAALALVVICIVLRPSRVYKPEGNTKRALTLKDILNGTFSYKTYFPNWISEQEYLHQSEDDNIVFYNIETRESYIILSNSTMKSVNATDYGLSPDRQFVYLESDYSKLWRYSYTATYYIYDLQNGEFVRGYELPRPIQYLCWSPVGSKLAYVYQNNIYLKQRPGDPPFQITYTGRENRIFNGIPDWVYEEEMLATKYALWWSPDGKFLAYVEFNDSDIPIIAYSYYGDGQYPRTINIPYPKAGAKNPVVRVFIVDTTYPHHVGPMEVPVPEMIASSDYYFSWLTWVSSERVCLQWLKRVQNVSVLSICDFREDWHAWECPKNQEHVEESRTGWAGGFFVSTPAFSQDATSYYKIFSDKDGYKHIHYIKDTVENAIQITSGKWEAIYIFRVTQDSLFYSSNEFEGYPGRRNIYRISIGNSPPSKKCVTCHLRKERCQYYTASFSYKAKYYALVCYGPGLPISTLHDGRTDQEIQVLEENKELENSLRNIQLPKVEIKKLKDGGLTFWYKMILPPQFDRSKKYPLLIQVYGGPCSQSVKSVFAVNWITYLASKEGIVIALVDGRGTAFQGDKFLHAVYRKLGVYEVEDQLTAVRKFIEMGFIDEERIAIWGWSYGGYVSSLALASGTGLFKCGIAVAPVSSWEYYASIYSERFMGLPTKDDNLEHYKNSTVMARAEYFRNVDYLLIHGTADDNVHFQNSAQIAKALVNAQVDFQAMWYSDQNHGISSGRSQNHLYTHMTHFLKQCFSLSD
The test can be described thus: FACS, CHOK1 cells stably expressing mouse FAP. The procedure: (§2) In this experiment, the binding of the anti-FAP/CD40 bispecific antibodies to stably transfected strains of CHOK1 cells that highly express human FAP, cynomolgus monkey FAP and mouse FAP was measured by FACS.

Another test concerns the target T5, human FAP on CHO cells (human, UniProt Q12884 1-760).
T5 construct: whole, on cells; also called CHO cell line overexpressing human FAP; CHOK1/FAP
The test can be described thus: FACS, CHOK1 cells stably expressing human FAP. The procedure: as §2

Test [5] addresses T6, cynomolgus monkey FAP on CHOK1 cells (cynomolgus monkey).
T6 construct: whole, on cells
Briefly: FACS, CHOK1 cells stably expressing cynomolgus monkey FAP. The procedure:
as §2

Test [6] has as its target T7, human FAP protein (Acro, FAP-H5244) (human, UniProt Q12884 26-760).
T7 construct: Bought protein
Briefly: SPR (Biacore 8K), antibody captured by anti-human IgG Fc, human FAP analyte. The procedure: (§3) The affinities of the anti-FAP/CD40 bispecific antibodies for their antigens, the human FAP protein (Acro, FAP-H5244) and the human CD40 protein (Acro, CD0-H5228), were measured by SPR (GE Healthcare; Biacore 8K). A CM5 sensor chip was used, and HBS-EP+buffer solution (10 mM HEPES, 150 mM NaCl, 3 mM EDTA, 0.05% surfactant P20) was used as the mobile phase. An anti-human IgG (Fc) antibody was immobilized by amino coupling. The test antibodies were separately diluted in HBS-EP+buffer solution as ligands and captured by the anti-human IgG (Fc) antibody on chip channels. Antigenic proteins of different species were used as analytes.

In another test the target is T8, h-CD40-His (human, UniProt P25942 21-193).
T8 construct: range 21-193; Bought His-tagged recombinant protein; also called human CD40 protein (Acro, CD0-H5228); human CD40
T8 sequence (P25942 21-193 limits assumed): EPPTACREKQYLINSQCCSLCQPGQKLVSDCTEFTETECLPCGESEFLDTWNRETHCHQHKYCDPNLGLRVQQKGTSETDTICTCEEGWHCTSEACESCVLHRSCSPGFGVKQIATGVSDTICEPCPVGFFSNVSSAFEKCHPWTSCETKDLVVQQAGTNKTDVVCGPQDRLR
Briefly: SPR (Biacore 8K), antibody captured by anti-human IgG Fc, human CD40 analyte. As for the experimental part: as §3
For orientation: Surface plasmon resonance follows binding to a sensor surface in real time, without labels.

T1 sequence (P25942 other isoform, or with tags, fused parts or gaps): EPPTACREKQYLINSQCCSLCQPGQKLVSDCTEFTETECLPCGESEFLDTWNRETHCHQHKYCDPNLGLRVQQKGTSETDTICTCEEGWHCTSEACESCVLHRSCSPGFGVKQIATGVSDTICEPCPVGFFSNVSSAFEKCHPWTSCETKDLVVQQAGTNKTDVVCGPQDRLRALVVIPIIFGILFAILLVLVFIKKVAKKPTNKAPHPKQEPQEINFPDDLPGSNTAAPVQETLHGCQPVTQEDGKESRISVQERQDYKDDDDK
T2 sequence (P25942 21-277): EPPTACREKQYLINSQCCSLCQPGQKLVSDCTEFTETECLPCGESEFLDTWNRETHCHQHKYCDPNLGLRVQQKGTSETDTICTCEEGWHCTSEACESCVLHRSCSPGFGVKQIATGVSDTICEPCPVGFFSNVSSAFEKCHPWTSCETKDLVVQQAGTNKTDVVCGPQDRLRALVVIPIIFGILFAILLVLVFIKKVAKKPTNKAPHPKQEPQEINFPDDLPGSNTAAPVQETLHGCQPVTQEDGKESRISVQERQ

B1: A297V3-Fc (Fc fusion)
chain: EVQLVESGGGLVQPGGSLRLSCAASGFTFSRYGMKWVRQAPGKGLEWVSTINSHGDTTYYADSVKGRFTISRDNAKNSLYLQMNSLRAEDTAVYYCLRIDYSDYSSRGQGTLVTVSSEPKSADKTHTCPPCPAPELLGGPSVFLFPPKPKDTLMISRTPEVTCVVVDVEHEDPEVKFNWYVDGVEVHNAKTKPREEQYNSTYRVVSVLTVLHQDWLNGKEYKCKVSSKAFPAPIEKTISKAKGQPREPQVYTLPPSRDELTKNQVSLTCLVKGFYPSDIAVEWESNGQPENNYKTTPPVLDSDGSFFLYSKLTVDKSRWQQGNVFSCSVMHEALHNHYTQKSLSLSPGK
Take B1: in test [1], the response was half-maximal at 1.25 nM (EC50) and the “Emax (MFI)” value worked out at 12800 MFI. In [2], the “FcγRIIb-mediated activation of HEK-Blue CD40L cells, EC50” value (“FcγRIIb-mediated activation … EC50” below) was determined as 0.006 nM and the “FcγRIIb-mediated activation of HEK-Blue CD40L cells, Emax (relative fluorescence intensity)” value was 12.8 relative fluorescence intensity.

B2: A297V2-Fc (Fc fusion)
chain: B1 chain with E1Q, L11V, V93L, L112M
As to B2, in test [1], the EC50 (usually the concentration that produces a half-maximal response) stood at 1.07 nM and the “Emax (MFI)” value is 12800 MFI. Further, in [2], the “FcγRIIb-mediated activation … EC50” value was 0.005 nM and the “FcγRIIb-mediated activation of HEK-Blue CD40L cells, Emax (relative fluorescence intensity)” value is 20 relative fluorescence intensity.

B3: A12V2-Fc (Fc fusion)
chain: B1 chain with R31N, N52L, H54Q, D56G, T57S, V93L, I99V, Y101W, S106P, L112Q
With B3, in test [1], it took 0.42 nM to reach a half-maximal effect (EC50) and the “Emax (MFI)” value was 16600 MFI. Besides, in [2], the “FcγRIIb-mediated activation … EC50” value came to 0.002 nM and the “FcγRIIb-mediated activation of HEK-Blue CD40L cells, Emax (relative fluorescence intensity)” value was 18.6 relative fluorescence intensity.

B4: A297V4-Fc (Fc fusion)
chain: B1 chain with T57S, A75S, S78T, R98K
B4: in test [1], the EC50 came to 2.7 nM and the “Emax (MFI)” value came out at 8260 MFI. For the same molecule, in test [2], the “FcγRIIb-mediated activation … EC50” value turned out to be 0.038 nM and the “FcγRIIb-mediated activation of HEK-Blue CD40L cells, Emax (relative fluorescence intensity)” value was 13.3 relative fluorescence intensity.

B5: A12V1-Fc (Fc fusion)
chain: EVQLVESGGGLVQPGGSLRLSCAASGFTFSNYGMKWVRQAPGKGLEWVSTILSQGGSTYYADSVKGRFTISRDNAKNSLYLQMNSLRAEDTALYYCARVDWSDYSPRGQGTMVTVSSEPKSADKTHTCPPCPAPELLGGPSVFLFPPKPKDTLMISRTPEVTCVVVDVEHEDPEVKFNWYVDGVEVHNAKTKPREEQYNSTYRVVSVLTVLHQDWLNGKEYKCKVSSKAFPAPIEKTISKAKGQPREPQVYTLPPSRDELTKNQVSLTCLVKGFYPSDIAVEWESNGQPENNYKTTPPVLDSDGSFFLYSKLTVDKSRWQQGNVFSCSVMHEALHNHYTQKSLSLSPGK
For the molecule B5, in test [1], the concentration giving a half-maximal response (EC50) worked out at 2.13 nM and the “Emax (MFI)” value is 16600 MFI. Also, in test [2], the “FcγRIIb-mediated activation … EC50” value was 0.009 nM and the “FcγRIIb-mediated activation of HEK-Blue CD40L cells, Emax (relative fluorescence intensity)” value was 21.6 relative fluorescence intensity.

B6: A297V1-Fc (Fc fusion)
chain: B1 chain with E1Q, L11V, V93L, L97A, L112M
As for B6, in test [1], the EC50 stood at 1.11 nM and the “Emax (MFI)” value worked out at 7300 MFI. Also, in test [2], the “FcγRIIb-mediated activation … EC50” value is 0.021 nM and the “FcγRIIb-mediated activation of HEK-Blue CD40L cells, Emax (relative fluorescence intensity)” value was 18.4 relative fluorescence intensity.

B7: A12V3-Fc (Fc fusion)
chain: B5 chain with L4V, A75S, S78T, L93V, A97L, M112Q
For the molecule B7, in test [1], the EC50 stood at 1.74 nM and the “Emax (MFI)” value stood at 16900 MFI. Also, in [2], the “FcγRIIb-mediated activation … EC50” value worked out at 0.011 nM and the “FcγRIIb-mediated activation of HEK-Blue CD40L cells, Emax (relative fluorescence intensity)” value was 19.1 relative fluorescence intensity.

B8: Ab10-A12V2-2 (bispecific antibody, human IgG1, kappa, L234A L235A)
heavy: not shown
light: DIQMTQSPSSVSASVGDRVTITCRASQGISSWLAWYQQKPGKAPKLLIYAASSLQSGVPSRFSGSGSGTDFTLTISSLQPEDFATYYCQQANSFPPAFGQGTKVEIKRTVAAPSVFIFPPSDEQLKSGTASVVCLLNNFYPREAKVQWKVDNALQSGNSQESVTEQDSKDSTYSLSSTLTLSKADYEKHKVYACEVTHQGLSSPVTKSFNRGEC
notes: divalent for CD40
For the molecule B8, the concentration giving a half-maximal response (EC50) is 2.76 nM in test [3]; 2.4 nM in test [4]; 4.32 nM in the test with mouse FAP on CHOK1 cells; 2.72 nM with human FAP on CHO cells; 5.65 nM in test [5]. Besides, the “Emax (MFI)” value in [3] came out at 6610 MFI; in test [4], 7570 MFI; with mouse FAP on CHOK1 cells it was 19500 MFI; in the test with human FAP on CHO cells it was 74000 MFI; in test [5] it was 45000 MFI.

B9: Ab10-A12V2-4 (bispecific antibody, human IgG1, kappa, L234A L235A)
heavy: not shown
light: B8 light
notes: Ab10 IgG1 (L234A/L235A) with two A12V2 VHHs in tandem on each heavy chain C-terminus; tetravalent for CD40
On to B9, for which the EC50 in test [3] came out at 3.24 nM; in test [4], 0.79 nM; with mouse FAP on CHOK1 cells, 4.43 nM; with human FAP on CHO cells, 2.57 nM; in test [5] it was 2.26 nM. Moreover, the “Emax (MFI)” value in [3] was found to be 6540 MFI; in test [4] it was 4640 MFI; in the test with mouse FAP on CHOK1 cells, 19000 MFI; with human FAP on CHO cells it was 64900 MFI; in test [5], 43200 MFI. In addition, the Kd (usually a measure of binding affinity in units of concentration) in test [6] stood at 0.294 nM; with h-CD40-His it was 29 nM. The koff (as a rule, the rate constant with which the complex falls apart) turned out to be 5.14e-05 s⁻¹ in [6] and 0.002 s⁻¹ with h-CD40-His. Moreover, the kon – broadly, the second-order rate constant of association – came out at 175000 M⁻¹ s⁻¹ in test [6] and 69000 M⁻¹ s⁻¹ in the test with h-CD40-His.

The values above are taken from US20250051467A1 (JIANGSU HENGRUI PHARMACEUTICALS, published 2025).
